According to patent US6919086B1, “Graminae pollen allergen mutants for specific immunotherapy, and production and use of the same” (Merck Patent Gesellschaft mit, priority 1997, dated 2005):
Like-named read-outs stand apart in the source and are kept apart here.

Legend:
[1] = tested on: Phl p 5b-reactive T cell lines (TCLs) from allergic patients; assay: Proliferative reaction of Phl p 5b-reactive oligoclonal T cell lines ([3H]-thymidine incorporation); assay type: cell-based, human; conditions: secondary activator 0.3 μM
Protocol: In the second phase, oligoclonal T cell lines, which have been established by repeated stimulation with the relevant allergens, are employed for the testing. Once again, only those modified recombinant allergens which at least give rise to a stimulation index (SI) of 50% of the SI of the wild type are taken into consideration.
(§1) 40 ml of heparinized blood were obtained from each patient. Peripheral mononuclear cells (PBMC) were then isolated from this blood sample by means of the customary method using density gradient centrifugation. Analogous cell isolations were carried out at a later stage when it was necessary to obtain irradiated autologous antigen-presenting cells (APC) for characterizing the TCL and TCC further. After the PBMC had been counted, TCL which reacted to group 5 allergens in vitro were established as follows and as has already been described in detail elsewhere (Lit. 1): in each well of 24-well microculture plates, from 1.5 to 2.0×10^6 PBMC in 1 ml of culture medium (UltraCulture) were stimulated for 7 days in the added presence of natural Phl p5 allergens (in each case 10 μg/well) which had been purified by immunoaffinity chromatography. A total of from 8 to 10 of these cultures were set up. The isolation of Phl p5 by means of immunoaffinity chromatography has been described in detail (Lit. 2). At the end of the 7 days of culture, IL-2 (from 10 to 20 IU/well) was added to the cell cultures for a further 5 to 7 days. All the individual cultures were then pooled and the T cell blasts were enriched by means of density gradient centrifugation; the TCL which were obtained were then tested in a specific lymphocyte proliferation test (see Lit. 1 as well). For this, 2×10^4/ml TCL blasts were in each case cultured with 5×10^4/ml irradiated autologous APCs in triplicate samples in 96-well microculture plates. 10-20 μg of Phl p5 allergen were added as the specific antigen stimulus. After 56 hours of incubation, ^3H-labelled thymidine (1 μCi/well) was pipetted into the microcultures. After a further 16 hours, the radioactivity which had been incorporated into the proliferating T cell blasts was measured in a beta counter (Matrix 96). The results were calculated, as the arithmetic mean of the multiple samples, in counts per minute (cpm). The criterion for the quality of the TCL was the stimulation index, which was obtained by relating the cpm values with Phl p5 addition to those without Phl p5 addition.
The oligoclonal T cell lines (TCLs) from 8 patients who were allergic to grass pollen (see Ex. 1) were established by repeated activation with natural Ph1 p 5b (a+b) or recombinant rPh1 p 5b or 5a+5b.
The proliferative reaction of these TCLs was tested using the rPh1 p 5b mutants (FIG. 10).

[2] = tested on: IgE antibodies of allergic patients; assay: EAST inhibition test (IgE reactivity / allergenicity); assay type: binding, human; conditions: for IC50: read-out: Inhibition value 50% (concentration of the inhibitor at 50% inhibition); for Allergenic potency (Prel) 25%: relative to native Phl p 5b at 25% inhibition; for Allergenic potency (Prel) 50%: relative to native Phl p 5b at 50% inhibition
Protocol: The effects of the induced mutations on the allergenicity, i.e. the ability to bind to the IgE antibodies of allergic patients, of the modified recombinant allergens is determined qualitatively and quantitatively by means of the EAST inhibition test. […] The extent of the immunochemical relatedness (cross reactivity) can also be quantified. This EAST inhibition test only takes the reaction with IgE antibodies into account.
The binding of the allergens by the IgE antibodies is the basic prerequisite for the allergen-specific activation of the effector cells (mast cells, basophils, inter alia) in type I allergy. The allergen-specific inhibition of the enzyme/allergen sorbent test (EAST) is the best means for qualitatively and quantitatively recording the binding of the allergens to IgE anti-bodies. The EAST inhibition test is carried out as follows. Microtitre plates are coated with allergen (natural or recombinant Ph1 p 5 or Ph1 p 5b) (1 μg/ml). After the unbound allergen molecules have been removed by washing, non-specific plastic binding sites are blocked with bovine serum albumin (0.5%). […] from allergic patients, as a representative pool of 10-30 donors or as an individual serum, is incubated, in a suitable dilution, with the allergen-coated microtritre plates. The bound allergen-specific IgE antibodies are quantified using enzyme-coupled anti-IgE antibodies (e.g. alk. phosphatase-a-IgE antibodies). This binding is inhibited by soluble allergen or the substance to be tested (allergen mutants) in dependence on the concentration. The inhibition curve obtained with the purified natural allergen Ph1 p 5b is used as the reference.

[3] = tested on: Phl p 5b-reactive T cell clones (TCCs) from allergic patients; assay: Proliferative reaction of Phl p 5b-reactive T cell clones ([3H]-thymidine incorporation); assay type: cell-based, human; conditions: final concentration 0.3 μM
Protocol: as §1
After a TCL had been cloned (see below), the specificity of the isolated TCCs were determined as has just been described. Stimulation indices of at least 5 were rated as being positive for the TCCs. The determination of T cell epitopes for defining the T cell-reactive regions on group 5 allergens was also carried out using specific proliferation tests, with 1-2 μg of synthesized dodecapeptide/ml being used for this purpose in each case (see below).
The reactivity of the recombinant Ph1 p 5b mutants was tested on established T cell clones (TCCs) of known specificity. The TCCs derive from patients who are allergic to grass pollen (see Ex. 1) and are directed against the T cell-reactive regions A (FIG. 7), B (FIG. 8) and C (FIG. 9). The T cell reactivity was measured by stimulating the clones to proliferate.

[4] = allergic patient serum pool Bor 18/100
[5] = allergic patient serum pool We 6/97
[6] = individual allergic patient serum II/3
[7] = individual allergic patient serum II/12
[8] = individual allergic patient serum II/17

Molecule	Inhibition value 25% (concentration of the inhibitor at 25% inhibition) [2, 4]	IC50 [2, 4]	Inhibition value 25% (concentration of the inhibitor at 25% inhibition) [2, 5]	IC50 [2, 5]	Inhibition value 25% (concentration of the inhibitor at 25% inhibition) [2, 6]	IC50 [2, 6]	Inhibition value 25% (concentration of the inhibitor at 25% inhibition) [2, 7]	IC50 [2, 7]	Inhibition value 25% (concentration of the inhibitor at 25% inhibition) [2, 8]	IC50 [2, 8]	Allergenic potency (Prel) 25% ([2]; individual serum II/3)	Allergenic potency (Prel) 25% ([2]; individual serum II/12)	Allergenic potency (Prel) 25% ([2]; individual serum II/17)	Allergenic potency (Prel) 25% ([2]; serum pool Bor 18/100)	Allergenic potency (Prel) 25% ([2]; serum pool We 6/97)	Allergenic potency (Prel) 50% ([2]; individual serum II/3)	Allergenic potency (Prel) 50% ([2]; individual serum II/12)	Allergenic potency (Prel) 50% ([2]; individual serum II/17)	Allergenic potency (Prel) 50% ([2]; serum pool Bor 18/100)	Allergenic potency (Prel) 50% ([2]; serum pool We 6/97)	further results
r Phl p 5b: recombinant wild type Phl p 5b, 265 amino acids, SEQ ID NO 87 (protein) ADAGYAPATPAAAGAAAGKATTEEQKLIEDINVGFKAAVAAAASVPAADKFKTFEAAFTSSSKAAAAKAPGLVPKLDAAYSVAYKAAVGATPEAKFDSFVASLTEALRVIAGALEVHAVKPVTEEPGMAKIPAGELQIIDKIDAAFKVAATAAATAPADDKFTVFEAAFNKAIKESTGGAYDTYKCIPSLEAAVKQAYAATVAAAPQVKYAVFEAALTKAITAMSEVQKVSQPATGAATVAAGAATTAAGAASGAATVAAGGYKV	2e-10 mol/L	5 nM	3e-10 mol/L	1400 nM	5.6e-10 mol/L	14 nM	8.7e-10 mol/L	73 nM	2.1e-10 mol/L	4.7 nM	0.9030	0.597	1.045	1.709	1.697	0.4190	0.093	0.5450	0.8410	0.4400	Incorporation of [3H]-thymidine into TCL 1 Wöl (stimulation index class) ([1]; primary stimulator n Phl p 5): + (1-2 (+)); Incorporation of [3H]-thymidine into TCL 2 Eic (stimulation index class) ([1]; primary stimulator n Phl p 5): + (1-2 (+)); Incorporation of [3H]-thymidine into TCL 3 Fre (stimulation index class) ([1]; primary stimulator n Phl p 5): + (1-2 (+)); Incorporation of [3H]-thymidine into TCL 4 Mer (stimulation index class) ([1]; primary stimulator n Phl p 5): + (1-2 (+)); Incorporation of [3H]-thymidine into TCL 5 17.4 (stimulation index class) ([1]; primary stimulator r Phl p 5): + (1-2 (+)); Incorporation of [3H]-thymidine into TCL 6 Mah (stimulation index class) ([1]; primary stimulator r Phl p 5a, r Phl p 5b): +++ (>10 (+++)); Incorporation of [3H]-thymidine into TCL 7 19.2 (stimulation index class) ([1]; primary stimulator r Phl p 5b): +++ (>10 (+++)); Incorporation of [3H]-thymidine into TCL 8 20.1 (stimulation index class) ([1]; primary stimulator r Phl p 5b): +++ (>10 (+++)); EAST inhibition curve / inhibitory effect (in words) ([2]; serum pool Bor 18/100 (20 donors), FIG. 1): binding curves which are similar to that obtained with natural Ph1 p 5b; Incorporation of [3H]-thymidine into TCC CB 2 (stimulation index class) ([3]; T cell-reactive region A): +++ (>10 (+++)); Incorporation of [3H]-thymidine into TCC CB 14 (stimulation index class) ([3]; T cell-reactive region A): +++ (>10 (+++)); Incorporation of [3H]-thymidine into TCC JR 13 (stimulation index class) ([3]; T cell-reactive region A): +++ (>10 (+++)); Incorporation of [3H]-thymidine into TCC JR 15 (stimulation index class) ([3]; T cell-reactive region A): +++ (>10 (+++)); Incorporation of [3H]-thymidine into TCC DW8 (stimulation index class) ([3]; T cell-reactive region B): + (1-2 (+)); Incorporation of [3H]-thymidine into TCC UZH2 (stimulation index class) ([3]; T cell-reactive region B): +++ (>10 (+++)); Incorporation of [3H]-thymidine, stimulation index SI, 1st exp. ([3]; T cell-reactive region C): 11.0; Incorporation of [3H]-thymidine, stimulation index SI, 2nd exp. ([3]; T cell-reactive region C): 7.0; Incorporation of [3H]-thymidine, stimulation index SI, 3rd exp. ([3]; T cell-reactive region C): 5.5; Incorporation of [3H]-thymidine, stimulation index class (last column, no head) ([3]; T cell-reactive region C): ++ (5-10 (++))
n Phl p 5b: purified natural allergen Phl p 5b of timothy grass (Phleum pratense), reference of the EAST inhibition (protein) ADAGYAPATPAAAGAAAGKATTEEQKLIEDINVGFKAAVAAAASVPAADKFKTFEAAFTSSSKAAAAKAPGLVPKLDAAYSVAYKAAVGATPEAKFDSFVASLTEALRVIAGALEVHAVKPVTEEPGMAKIPAGELQIIDKIDAAFKVAATAAATAPADDKFTVFEAAFNKAIKESTGGAYDTYKCIPSLEAAVKQAYAATVAAAPQVKYAVFEAALTKAITAMSEVQKVSQPATGAATVAAGAATTAAGAASGAATVAAGGYKV	3.3e-10 mol/L	4.2 nM	5.1e-10 mol/L	6.1 nM	5.1e-10 mol/L	5.9 nM	5.2e-10 mol/L	6.8 nM	2.2e-10 mol/L	2.6 nM	1.000	1.000	1.000	1.000	1.000	1.000	1.000	1.000	1.000	1.000	
